# Assays:
# HLA-A*02:02 = assay: IEDB peptide-MHC binding, purified MHC/competitive/radioactivity; filed as Kd, often an IC50 or EC50 that approximates it; ≥ and ≤ were set here for values at or beyond the usual limits of such assays
# HLA-A*02:06 = assay: as above
# HLA-A*02:03 = assay: as above
# HLA-A*26:01 = assay: as above; conditions: source organism: Dengue virus 4 Philippines/H241/1956
# HLA-B*58:01 = assay: IEDB peptide-MHC binding, purified MHC/direct/fluorescence; filed as Kd, often an IC50 or EC50 that approximates it; ≥ and ≤ were set here for values at or beyond the usual limits of such assays
# HLA-B*15:01 = assay: as above
# HLA-A*30:02 = assay: IEDB peptide-MHC binding, purified MHC/competitive/radioactivity; filed as Kd, often an IC50 or EC50 that approximates it; ≥ and ≤ were set here for values at or beyond the usual limits of such assays
# HLA-A*02:01 = assay: IEDB peptide-MHC binding, purified MHC/direct/fluorescence; filed as Kd, often an IC50 or EC50 that approximates it; ≥ and ≤ were set here for values at or beyond the usual limits of such assays
# HLA-A*03:01 [1] = assay: as above
# HLA-A*31:01 = assay: IEDB peptide-MHC binding, purified MHC/competitive/radioactivity; filed as Kd, often an IC50 or EC50 that approximates it; ≥ and ≤ were set here for values at or beyond the usual limits of such assays
# HLA-A*03:01 [2] = assay: as above
# HLA-A*33:01 = assay: as above
# HLA-A*11:01 = assay: as above
# HLA-A*68:01 = assay: as above
# HLA-A*01:01 = assay: IEDB peptide-MHC binding, purified MHC/direct/fluorescence; filed as Kd, often an IC50 or EC50 that approximates it; ≥ and ≤ were set here for values at or beyond the usual limits of such assays; conditions: source organism: Homo sapiens
# [3] = source organism: Vaccinia virus WR
# [4] = source organism: Dengue virus 2 Jamaica/1409/1983
# [5] = source organism: SARS coronavirus Tor2
# [6] = source organism: Dengue virus 1 Brazil/97-11/1997
# [7] = source organism: Lymphocytic choriomeningitis virus (strain WE)
# [8] = source organism: Dengue virus 3 Martinique/1243/1999
# [9] = source organism: Mammarenavirus whitewaterense
# [10] = source organism: Mammarenavirus brazilense
# [11] = source organism: Lymphocytic choriomeningitis virus (strain Armstrong)
Sequence,Kd (HLA-A*02:02; [3]) [nM],Kd (HLA-A*02:06; [3]) [nM],Kd (HLA-A*02:03; [3]) [nM],other results
AIDRQVSVKL,7900,≥ 32000,13100,–
ALGMMVLKIV,–,–,–,Kd (HLA-A*02:03; [4]): 55.9 nM
ALLFLMSFT,–,–,–,Kd (HLA-A*02:02; [5]): 2830 nM; Kd (HLA-A*02:06; [5]): 128 nM; Kd (HLA-A*02:03; [5]): 1990 nM
ALLSCIRNA,120,77.4,6.22,–
ALYSPPLISI,1.42,162,150,–
ATQFNFNGHT,≥ 28600,≥ 26500,11500,–
CQCTVQEFI,2050,1130,4790,–
CTEETKRNIA,≥ 70000,≥ 69800,≥ 50100,–
CVDHPFIYV,300,148,1410,–
DLLFNEKLKV,357,2020,317,–
DLLNVTYNI,297,1280,194,–
DVERLQMAGV,215,776,104,–
DVSVSVGTGI,17900,≥ 22100,5830,–
EKLRIKGMSY,–,–,–,Kd (HLA-A*26:01): 4650 nM
EMKYALINL,3060,≥ 77100,63.5,–
ENPYRTWAY,–,–,–,Kd (HLA-A*26:01): 4380 nM
FIVYGRSNA,6090,8750,370,–
FLPQIGGEAI,0.998,10.1,13.5,–
FQPHQLWTT,–,–,–,Kd (HLA-A*02:06; [6]): 6.01 nM
FSTSAYLISI,–,–,–,Kd (HLA-A*02:02; [7]): 0.675 nM; Kd (HLA-A*02:06; [7]): 3.48 nM; Kd (HLA-A*02:03; [7]): 13.5 nM
GAAITLVVI,6450,2950,3280,–
GARVIWMDA,4600,2140,9140,–
GGTPAVEEW,–,–,–,Kd (HLA-B*58:01; source organism: Mycobacterium tuberculosis): 202 nM
GIKNLKSLL,2140,≥ 61200,2620,–

Sequence,Kd (HLA-A*02:02; [3]) [nM],Kd (HLA-A*02:06; [3]) [nM],Kd (HLA-A*02:03; [3]) [nM],other results
GLIVILFIM,13400,5290,1390,–
GLMILLTGGA,–,–,–,Kd (HLA-A*02:03; [8]): 23.1 nM
GLSASDVDM,497,13800,3540,–
GLVDVCFWS,–,–,–,Kd (HLA-A*02:02; [9]): 116 nM; Kd (HLA-A*02:06; [9]): 533 nM; Kd (HLA-A*02:03; [9]): 1070 nM
GQIDNFSLGV,–,–,–,Kd (HLA-A*02:06; [4]): 5.63 nM
GTKGKLYIA,1720,2530,55.9,–
GTKGKLYIAL,9070,≥ 37200,7840,–
GVKGFSFKY,–,–,–,Kd (HLA-B*15:01; source organism: Influenza A virus (A/eka/Thailand/EkA1NRC/2004(H5N1))): ≥ 20000 nM
GVPLLALGCY,–,–,–,Kd (HLA-A*30:02; [6]): 37.6 nM
IADIRDKYM,63.5,≥ 58100,230,–
IAIFNNRNL,9230,13400,10500,–
ICFWSTLFFT,–,–,–,Kd (HLA-A*02:02; [10]): ≥ 33200 nM; Kd (HLA-A*02:06; [10]): ≥ 34900 nM; Kd (HLA-A*02:03; [10]): ≥ 35100 nM
IISLFYTFAI,108,146,43.7,–
ILATLNTLI,0.413,40.5,0.231,–
ILAVVSVSPL,–,–,–,Kd (HLA-A*02:03; source organism: Dengue virus 2 16681-PDK53): 39.5 nM
ILDGENCTL,–,–,–,Kd (HLA-A*02:01; source organism: Influenza A virus (A/Jiangsu/38/2004(H3N2))): 37.8 nM
IMETIDPVYI,28.6,349,239,–
ITLILSNKLL,1090,3890,4690,–
IVSLCPTKKL,9.46,≥ 28400,29.5,–
IWYMWLGARY,–,–,–,Kd (HLA-A*30:02; [8]): 3.2 nM
KIVQLPKRGV,4120,2250,51.4,–
KLKSMEAEMI,–,–,–,Kd (HLA-A*02:06; source organism: Homo sapiens): 7830 nM
KLLIVLTCI,–,–,–,Kd (HLA-A*02:02; [5]): 260 nM; Kd (HLA-A*02:06; [5]): 449 nM; Kd (HLA-A*02:03; [5]): 1940 nM
KLVETGFVI,13200,200,1070,–

Sequence,Kd (HLA-A*02:02; [3]) [nM],Kd (HLA-A*02:06; [3]) [nM],Kd (HLA-A*02:03; [3]) [nM],other results
KVAAEGINY,–,–,–,Kd (HLA-A*30:02; source organism: Dengue virus 2 Peru/IQT2913/1996): 110 nM
KVASEGIKY,–,–,–,Kd (HLA-A*30:02; [8]): 1740 nM
KVEKYLPEV,1050,116,171,–
KVIKLVKSL,578,260,42.5,–
KVSCTILAAV,–,–,–,Kd (HLA-A*02:06; [4]): 12.7 nM; Kd (HLA-A*02:03; [4]): 54.4 nM
KVYLSTFNM,482,265,786,–
LLQAGASVK,–,–,–,Kd (HLA-A*03:01 [1]; source organism: Vibrio parahaemolyticus RIMD 2210633): 79 nM
LLWYRRGTF,–,–,–,Kd (HLA-B*15:01; source organism: Mycobacterium tuberculosis C): 360 nM
LNISGYNYSL,–,–,–,Kd (HLA-A*02:02; [10]): 77.1 nM; Kd (HLA-A*02:06; [10]): 1090 nM; Kd (HLA-A*02:03; [10]): ≥ 49000 nM
LVAEHRFENM,2050,723,462,–
LVFLWLLWPV,–,–,–,Kd (HLA-A*02:02; [5]): 0.926 nM; Kd (HLA-A*02:06; [5]): 0.564 nM; Kd (HLA-A*02:03; [5]): 1.93 nM
MIIGEPIIVA,42,124,111,–
MQLKIDKLT,7670,≥ 59600,≥ 60100,–
NMLDDFSAGA,308,242,161,–
PLSINVSGV,1120,17900,45.3,–
PTNDIPSLFI,11000,14800,≥ 61800,–
PVLEKKVCAI,541,1050,1190,–
RILSEKRKDT,711,6860,4160,–
RMIAISAKV,–,–,–,Kd (HLA-A*02:01; source organism: Camelpox virus M-96): 3.4 nM
RQLTSNVDV,≥ 50800,170,9760,–
RTIDAINKCV,10800,341,334,–
RTMPNESRV,140,155,100,–
RVAAEGINY,–,–,–,Kd (HLA-A*30:02; [4]): 48.4 nM
SIAMLKSKNI,1090,259,55,–

Sequence,Kd (HLA-A*02:02; [3]) [nM],Kd (HLA-A*02:06; [3]) [nM],Kd (HLA-A*02:03; [3]) [nM],other results
SLIYYQNEVT,77.2,4310,606,–
SMTCIAVGMV,–,–,–,Kd (HLA-A*02:03; [6]): 21.5 nM
SNSEDLLKAV,–,–,–,Kd (HLA-A*02:02; [11]): 17700 nM; Kd (HLA-A*02:06; [11]): ≥ 10000 nM; Kd (HLA-A*02:03; [11]): 15200 nM
TIAGGVCYYL,0.036,4.01,34.3,–
TIAVSVYGAI,1550,5390,582,–
TILATLNTL,238,25.6,33.8,–
TLIAMDLGEL,–,–,–,Kd (HLA-A*02:03; [6]): 12.6 nM
TLNRCALLR,–,–,–,Kd (HLA-A*03:01 [1]; source organism: Vibrio cholerae): 2230 nM
TTTYKAFDW,–,–,–,Kd (HLA-B*58:01; source organism: Mycobacterium tuberculosis variant bovis): 71.3 nM
VLQQNNSFII,665,9650,1030,–
VMDKNHAIFT,18700,≥ 69800,11500,–
VTCAAYYFMK,–,–,–,Kd (HLA-A*31:01; [5]): 199 nM; Kd (HLA-A*03:01 [2]; [5]): 12.7 nM; Kd (HLA-A*33:01; [5]): 2620 nM; Kd (HLA-A*11:01; [5]): 6.93 nM; Kd (HLA-A*68:01; [5]): 49.2 nM
VTLFYCDER,–,–,–,Kd (HLA-A*31:01; [3]): 131 nM; Kd (HLA-A*03:01 [2]; [3]): ≥ 43200 nM; Kd (HLA-A*33:01; [3]): 284 nM; Kd (HLA-A*11:01; [3]): 273 nM; Kd (HLA-A*68:01; [3]): 121 nM
VTRKCPQKK,–,–,–,Kd (HLA-A*31:01; [3]): 13.7 nM; Kd (HLA-A*03:01 [2]; [3]): 0.762 nM; Kd (HLA-A*33:01; [3]): 12300 nM; Kd (HLA-A*11:01; [3]): 61.5 nM; Kd (HLA-A*68:01; [3]): 9880 nM
VVISVIFYFI,239,542,755,–
VVIVENDNV,13200,4300,≥ 38000,–
VVVQIDPEY,–,–,–,Kd (HLA-A*31:01; [3]): ≥ 77900 nM; Kd (HLA-A*03:01 [2]; [3]): 141 nM; Kd (HLA-A*33:01; [3]): ≥ 77700 nM; Kd (HLA-A*11:01; [3]): 2340 nM; Kd (HLA-A*68:01; [3]): 110 nM
WLKDSAIMVA,14.8,4840,1320,–
WLLWPVTLA,–,–,–,Kd (HLA-A*02:02; [5]): 11.8 nM; Kd (HLA-A*02:06; [5]): 17.4 nM; Kd (HLA-A*02:03; [5]): 1.2 nM
YAVLSEYET,1780,1330,≥ 35100,–
YLDFGGPEG,–,–,–,Kd (HLA-A*02:01; source organism: Homo sapiens): 1500 nM; Kd (HLA-A*01:01): 2460 nM
YVSSSYKDI,5040,16600,1200,–

# Reference: the Immune Epitope Database (IEDB)
